From the nanobody polyreactivity screen of Harvey et al. (2022)

Assay: yeast display, Sf9 membrane polyspecificity reagent, FACS + sequencing; frameworks hold sequencing errors
How it was run: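 Using colony PCR, genes from sorted yeast display clones were amplified, then sequenced on MiSeq at 2 × 250 and filtered by CDR length. The clones had been stained with 10% biotinylated, detergent-solubilized Sf9 membrane reagent for 1 hour at 4 °C and sorted by FACS into low and high (top ~1%) gates on anti-HA and streptavidin fluorescence. Polyreactivity labels come from the gate of origin.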

| Sequence | polyreactivity (PSR sort gate) |
| --- | --- |
| QVQLVESGGGLVQAGGSLRLSCAASGFIFHYNAMGWYRPAPGKERELVAAITSGDSTDYADSVKGRFTISRDNAKNTVYLQMNSLKREDTAVYYCAAAEGYLSKYENDYWGQGTQVTVSS | low polyreactivity |
| QVQLVESGGGLVQAGGSLRLSCAASGSIFWTYAMGWSRQAPGKERELVATITYSDGNTYYADSVKGRFTISRDNAKNTVYFQMNSLKPEDTAVYYCNADGIYATISGYRYDYWGQGTQVTVSS | low polyreactivity |
| QVQLVESGGGLVQAGGSLRLSCAASGNTFTFYAMGWYRQAPGKERELVASITGRGGSTYYADSVKGRFTISRDNAKNTVYLQMNSLKPEDTAVYYCNADYNSYRYRPPTTRDYWGQGTQVTVSS | low polyreactivity |
| QVQLVESGGGLVQAGGSLRLSCAASGFTLTGNAMGWYRQAPGKERELVAAISRNGGSTFYADSVKGRFTISRDNAKNTVYLQMNSLKPEDTAVYYCNASRYRHSAYKYDSWGQGTQVTVSS | high polyreactivity |
| QVQLVESGGGLVQAGGSLRLSCAASGSNFTANAMGLYRQAPGKEREMVADISTGGSTKYADSVKGRFTISRDNAKNTVYLEMNSLKPEDTAVYYCAARSRWARGSAIRGFWGQGTQVTVSS | high polyreactivity |
| QVQLVESGGGLVQAGGSLRLSCAASGRTFYFYTMGWYRQAPGKERELVAAITSGGSTNYADSVKGRFTISRDNAKNTVYLQMNSLKPEDTAVYYCAAAYWRPGVRFFGPYDYWGQGTQVTVSS | high polyreactivity |
| QVQLVESGGGLVQAGGSLRLSCAASGSIFTYNAMGWYRQAPGKERELVAAINTSGSTNYADSVKGRFTISRDNAKNTVYLQMNSLKPEDTAVYYCAAGIVVTGYAYWGQGTQVTVSA | low polyreactivity |
| QVQLVESGGGLVQAGGSLRLSCAASGRTFRNYAMGWYRQAPGKERELVAGITSGGSTNYADSVKGRFTISRDNAKNTVYLQMNSLKPEDTAVYYCNAVRPFYWFWYYGYWGQGTQVTVSS | low polyreactivity |
| QVQLVESGGGLVQAGGSLRLSCAASGSTFKIYAMGWYRQAPGKERELVAAITRSGGSTYYADSVKGRFTISRDNAKNTVYLQMNSLKPEDTAVYYCAASRFTSYGIDYDYWGQGTQVTVSS | high polyreactivity |
| QVQLVESGGGLVQAGGSLRLICAASGSIFPFYAMGWYRQEPGKERELVAAITYSGGRTYYADSVKGRFTISRDNAKNTVYLQMNSLKPEDTAVYYCAVVVIFVRYGYWGQGTQVTVSS | low polyreactivity |
| QDQLVESGGGLVQAGGSLRLSCAASGRIFKFNAMGWYRPAPGKERELVAAITSGGSTNYADSVKGRFTLSRDNEKNTVYLQMNSLKREDTAVYYCAKSTPRFYPRGFYYWGHGTQVTVSS | low polyreactivity |
| QVQLVESGGGLVQAGGSLRLSCAASGRTLAPYAMGWYRQAPGKARELVADIDRGGGSTYYADSVKGSFTISRDNAKNTVYLQMNSLKPEDTAVYYCNVDEPGVLVAYSLDFWGQGSQVTVSS | low polyreactivity |
| QVQLVESGGGLYQAGGSLRLSCAASGRIFRYYAMGWYRQAPGKERELVAAINWSGGSTYYADSVKGRFTISRDNAKNTVYLQMNSLKPEDTAVYYCNTRWYVGDDWGQGTQVTVSS | high polyreactivity |
| QVQLVESGGGLVQAGGSLRLSCAASGFTFVINDLGWYRQAPGKERELVADITSGGDTYYADSVKGRFTISRDNAKNTVYLQMNSLKPEDTAFYYCAADIYPDWIYLLYGYWGQGTQVTVSS | low polyreactivity |
| QVQLVESGGGLVQAGGSLRLSCAATGRTFPAYAMGWYRQAPGKERELVAAITINGGSTYYADSVKGRFTISRDNAKNSVYLQMNSLKPEDTAVYYCAAYYASPRHGFWGQGTQVTVSS | low polyreactivity |
| QVQHVESGGGLVQAGGSLRLSCAASGLTFHQYAMGWYRQAPGKERELVAAITGSGGSTYYADSVKGRVTISRDKAKNTVYLQMYSLKPEDTAVYYCAAKTYRRGGGYWGQGSQVTVSS | high polyreactivity |
| QVQLVESGGGLVQAGGSLRLSCAASGYTFRYYVMGWYRQAPGKERELVATISRGGRTNYADSVKGRFTISRDNAKNTVYLQMNSLKPEDTAVYYCNADWSRVPYRYDYWGQGTQVTVSS | high polyreactivity |
| QVQFVDSGAGLVQAGGSLRLSCAASGSTLTTNAMGWYRQAPGKERELVAAISWRGGPTYYADSVKGRFTISRDIAKNTVYLQMNSLKPEDTAVYYCAADYTRSAYDYWGQGTQVTVSS | high polyreactivity |
| QVQLVESGGGLVQAGGSLRLSCAASGFIFHVYAMGWYRQAPGKERELVAAISGTGGSTYYADSVKGRFTISRDTALNTVSLQMNSLKPEDTAVYYYKAERSGNGYCGQGTQVTVSS | high polyreactivity |
| QVQLVESGGGLVQAGGSLRLSCAASGITFFGYAMGWYREAPGKERELVAGISRSTGRTYYADSVKGRFTISRDNAKNTVYLQMNILKPEDTAVYYCAARATRSLSRYMDYWGQGTQVTVSS | high polyreactivity |
| QVQLVESGGGLVQAGGSLRLSCAASGRTCVGNAMGWYRQAPGKERELVAAIRRGGDSTYYADSVKGRFTISRDNAKNTVYLQMNSLKPEDTAVSYCNAVSLQPYRGGFDYWGQGTQVTVSS | low polyreactivity |
